B1: Complement factor H (Homo sapiens), P08603 (parent)
chain: MRLLAKIICLMLWAICVAEDCNELPPRRNTEILTGSWSDQTYPEGTQAIYKCRPGYRSLGNVIMVCRKGEWVALNPLRKCQKRPCGHPGDTPFGTFTLTGGNVFEYGVKAVYTCNEGYQLLGEINYRECDTDGWTNDIPICEVVKCLPVTAPENGKIVSSAMEPDREYHFGQAVRFVCNSGYKIEGDEEMHCSDDGFWSKEKPKCVEISCKSPDVINGSPISQKIIYKENERFQYKCNMGYEYSERGDAVCTESGWRPLPSCEEKSCDNPYIPNGDYSPLRIKHRTGDEITYQCRNGFYPATRGNTAKCTSTGWIPAPRCTLKPCDYPDIKHGGLYHENMRRPYFPVAVGKYYSYYCDEHFETPSGSYWDHIHCTQDGWSPAVPCLRKCYFPYLENGYNQNYGRKFVQGKSIDVACHPGYALPKAQTTVTCMENGWSPTPRCIRVKTCSKSSIDIENGFISESQYTYALKEKAKYQCKLGYVTADGETSGSITCGKDGWSAQPTCIKSCDIPVFMNARTKNDFTWFKLNDTLDYECHDGYESNTGSTTGSIVCGYNGWSDLPICYERECELPKIDVHLVPDRKKDQYKVGEVLKFSCKPGFTIVGPNSVQCYHFGLSPDLPICKEQVQSCGPPPELLNGNVKEKTKEEYGHSEVVEYYCNPRFLMKGPNKIQCVDGEWTTLPVCIVEESTCGDIPELEHGWAQLSSPPYYYGDSVEFNCSESFTMIGHRSITCIHGVWTQLPQCVAIDKLKKCKSSNLIILEEHLKNKKEFDHNSNIRYRCRGKEGWIHTVCINGRWDPEVNCSMAQIQLCPPPPQIPNSHNMTTTLNYRDGEKVSVLCQENYLIQEGEEITCKDGRWQSIPLCVEKIPCSQPPQIEHGTINSSRSSQESYAHGTKLSYTCEGGFRISEENETTCYMGKWSSPPQCEGLPCKSPPEISHGVVAHMSDSYQYGEEVTYKCFEGFGIDGPAIAKCLGEKWSHPPSCIKTDCLSLPSFENAIPMGEKKDVYKAGEQVTYTCATYYKMDGASNVTCINSRWTGRPTCRDTSCVNPPTVQNAYIVSRQMSKYPSGERVRYQCRSPYEMFGDEEVMCLNGNWTEPPQCKDSTGKCGPPPPIDNGDITSFPLSVYAPASSVEYQCQNLYQLEGNKRITCRNGQWSEPPKCLHPCVISREIMENYNIALRWTAKQKLYSRTGESVEFVCKRGYRLSSRSHTLRTTCWDGKLEYPTCAKR
partner: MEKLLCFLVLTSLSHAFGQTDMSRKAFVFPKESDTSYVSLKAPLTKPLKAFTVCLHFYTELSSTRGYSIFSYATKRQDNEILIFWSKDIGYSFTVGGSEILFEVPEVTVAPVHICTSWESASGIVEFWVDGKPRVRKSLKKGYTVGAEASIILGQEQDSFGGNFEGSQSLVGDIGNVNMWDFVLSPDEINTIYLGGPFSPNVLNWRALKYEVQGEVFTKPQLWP

Variants of: B1
Details: with crp_human CRP

| Variant | effect of a mutation on the interaction |
| --- | --- |
| Y402H | with no effect |

Variants of: B1
Details: with crp_human CRP
Remark: another data set of the same source

| Variant | effect of a mutation on the interaction |
| --- | --- |
| Y402H | decreasing interaction strength |

From IntAct's records for PubMed 18786923
